In paper PMC3563936:

Molecular target: T1, Dpo4 (Y-family DNA polymerase) (Sulfolobus solfataricus, UniProt Q97W02 1-352)
T1 sequence: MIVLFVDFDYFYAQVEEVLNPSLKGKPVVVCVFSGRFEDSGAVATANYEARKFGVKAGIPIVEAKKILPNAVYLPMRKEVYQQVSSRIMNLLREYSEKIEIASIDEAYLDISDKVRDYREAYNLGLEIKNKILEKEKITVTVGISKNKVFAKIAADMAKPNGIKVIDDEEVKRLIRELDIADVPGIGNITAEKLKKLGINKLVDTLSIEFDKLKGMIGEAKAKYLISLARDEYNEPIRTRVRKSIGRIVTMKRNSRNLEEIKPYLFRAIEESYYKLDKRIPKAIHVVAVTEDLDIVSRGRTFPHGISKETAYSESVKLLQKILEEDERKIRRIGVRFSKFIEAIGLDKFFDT
Assay: X-ray crystallography

B1: 14/18-mer primer/template DNA (dsDNA)
DNA 1: GGGGGAAGGATTCC
DNA 2: TCATGGAATCCTTCCCCC
B1: binds.
